Assay results published in the supplement of paper PMC10126150.
± gives the standard deviation of the averaged measurements.

What follows are sequences tested on ATP (assay: switch fluorescence ratio, 500 uM ATP over buffer (Cy3 cluster intensity, sum of 5 cycles each) (fold (ratio)); higher = stronger signal-on switching upon ATP binding; sequences stand for … in TCGTCGGCAGCGTCAGATGTGTATAAGAGACAGTTTTTTTTTTTTTTTTTTTTTTTTT…TC). Conditions: aptamer strand: ATP DNA aptamer (quencher-CACCTGGGGGAGTATTGCGGAGGAAGG + anchor), 100 nM annealed; ATP concentration: 500 uM.
Outline: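 Cy3-labelled switching-strand clusters on a modified Illumina MiSeq flow-cell were annealed to 100 nM quencher-labelled ATP aptamer and imaged first in selection buffer, then after 15 min with 500 uM ATP at 22 °C. NaOH stripping and re-annealing separated each of five buffer/ATP cycles, and clusters outside 100-1000 RFU were excluded. The fluorescence ratio sums target-cycle Cy3 intensity over buffer-cycle Cy3 intensity per cluster and averages it per switch-domain sequence.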
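Note: ATP exposure 15 min at 22 °C before imaging.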

Row | Sequence | switch fluorescence ratio
1 | TCATTAGGGG | 0.994 ± 0.041
2 | TCATTATTCG | 0.985 ± 0.027
3 | TCATTTCGA | 0.988 ± 0.02
4 | TCATTTGGAA | 0.99 ± 0.025
5 | TCATTTGTTG | 1.01 ± 0.035
6 | TCATTTTTGC | 0.979 ± 0.052
7 | TCCAAAGAGA | 0.97 ± 0.039
8 | TCCAAAGAGG | 0.997 ± 0.018
9 | TCCAACTCCA | 1.11 ± 0.0039
10 | TCCAAGTGTG | 1.03 ± 0.021
11 | TCCAATTGCG | 0.953 ± 0.021
12 | TCCACATCAA | 1.197 ± 0.0086
13 | TCCACGTTGG | 1.01 ± 0.0067
14 | TCCAGAAAGG | 1.014 ± 0.0031
15 | TCCAGATAGG | 0.997 ± 0.048
16 | TCCAGGGCGG | 1.06 ± 0.022
17 | TCCAGGGGGT | 2.41 ± 0.044
18 | TCCAGGTAGT | 1.594 ± 0.012
19 | TCCAGGTGTG | 2.77 ± 0.42
20 | TCCAGTAGGT | 1.01 ± 0.0032
21 | TCCAGTTAGT | 0.977 ± 0.013
22 | TCCATACTGG | 1.004 ± 0.0073
23 | TCCATAGGGC | 1.002 ± 0.0048
24 | TCCATATGCT | 0.9941 ± 0.0093
25 | TCCATGGGGT | 0.9836 ± 0.0079
26 | TCCATTAGAT | 1.019 ± 0.0066

Row | Sequence | switch fluorescence ratio
27 | TCCATTGTCC | 1.08 ± 0.052
28 | TCCATTTTAA | 1.055 ± 0.0017
29 | TCCCAGAACG | 1.062 ± 0.0077
30 | TCCCAGCTGT | 1.12 ± 0.033
31 | TCCCGTATCC | 1.07 ± 0.036
32 | TCCCTTAGAG | 1.037 ± 0.0024
33 | TCCGAACCTT | 1.88 ± 0.086
34 | TCCGAGAGAG | 1.25 ± 0.053
35 | TCCGCAGATT | 4.02 ± 0.047
36 | TCCGGCTATT | 1.108 ± 0.0087
37 | TCCGGGAGTG | 1.078 ± 0.0027
38 | TCCGGGCAGG | 1.14 ± 0.023
39 | TCCGGGCTGG | 1.02 ± 0.013
40 | TCCGGGGGAG | 1 ± 0.023
41 | TCCGGGGGAT | 1.32 ± 0.38
42 | TCCGGGGGTA | 1.12 ± 0.12
43 | TCCGGGTAGG | 1.036 ± 0.0049
44 | TCCGGGTATT | 1.078 ± 0.0025
45 | TCCGGTTGCA | 2.49 ± 0.12
46 | TCCGTGTCTA | 1.07 ± 0.022
47 | TCCGTGTGGT | 1.07 ± 0.051
48 | TCCGTTGGGG | 1.05 ± 0.15
49 | TCCTCAAGTT | 1.23 ± 0.015
50 | TCCTCAGGAT | 1.02 ± 0.018
51 | TCCTCGTCTC | 1.69 ± 0.038
52 | TCCTGAAAAC | 1.1 ± 0.087

Row | Sequence | switch fluorescence ratio
53 | TCCTGAAATT | 0.987 ± 0.015
54 | TCCTGAGGAT | 1 ± 0.058
55 | TCCTGCATGG | 1.22 ± 0.037
56 | TCCTGGGAT | 1.01 ± 0.03
57 | TCCTGGGTAT | 1.69 ± 0.98
58 | TCCTGGGTTT | 1.27 ± 0.48
59 | TCCTGTACTG | 1.04 ± 0.062
60 | TCCTTAGTTC | 0.969 ± 0.035
61 | TCCTTCTTTA | 1.38 ± 0.43
62 | TCCTTGGTCG | 1.04 ± 0.031
63 | TCGAAAAGGG | 0.992 ± 0.015
64 | TCGAAACGGG | 1.14 ± 0.24
65 | TCGAAGAGCG | 0.976 ± 0.045
66 | TCGAAGCCAG | 1.061 ± 0.0045
67 | TCGAAGCCTA | 1.17 ± 0.02
68 | TCGAAGGGTG | 0.999 ± 0.04
69 | TCGAAGTATC | 1.12 ± 0.058
70 | TCGAATGGAT | 0.991 ± 0.011
71 | TCGAATGGGG | 0.961 ± 0.014
72 | TCGACAGTCC | 1.037 ± 0.0085
73 | TCGACGGGTG | 1.02 ± 0.043
74 | TCGACTGCGT | 1.056 ± 0.005
75 | TCGAGGAAGT | 0.999 ± 0.062
76 | TCGAGGATGT | 0.976 ± 0.019
77 | TCGAGGGAAC | 1.03 ± 0.018
78 | TCGAGGGCGA | 1.146 ± 0.0097

Row | Sequence | switch fluorescence ratio
79 | TCGAGGGTAG | 1.02 ± 0.018
80 | TCGAGGTCGA | 1.01 ± 0.039
81 | TCGAGTTG | 0.9972 ± 0.0093
82 | TCGATACTTT | 1.03 ± 0.021
83 | TCGATCCTGA | 0.998 ± 0.032
84 | TCGATGGACT | 1.03 ± 0.014
85 | TCGATGGATG | 1.025 ± 0.0058
86 | TCGATGGCAG | 1.059 ± 0.0033
87 | TCGATGTGTT | 0.9592 ± 0.0086
88 | TCGATGTTGG | 0.984 ± 0.03
89 | TCGATTGGGG | 0.9682 ± 0.0089
90 | TCGCATCCTT | 0.989 ± 0.017
91 | TCGCATTTTT | 1.11 ± 0.13
92 | TCGCCCTCCA | 1.26 ± 0.12
93 | TCGCCGAAAT | 1.7 ± 0.35
94 | TCGCGAATGG | 1.11 ± 0.02
95 | TCGCGGCTAT | 1.56 ± 0.61
96 | TCGCGTTTGC | 1.06 ± 0.054
97 | TCGCTATGCC | 0.991 ± 0.13
98 | TCGCTCACGG | 1.03 ± 0.021
99 | TCGCTGGTTG | 0.996 ± 0.022
100 | TCGCTTGTTG | 1.03 ± 0.022
101 | TCGCTTTT | 1.02 ± 0.02
102 | TCGGAAAATA | 1.01 ± 0.026
103 | TCGGAAAGGA | 0.9814 ± 0.0016
104 | TCGGAATGGC | 1.27 ± 0.23

Row | Sequence | switch fluorescence ratio
105 | TCGGACTAGG | 1 ± 0.031
106 | TCGGAGAATG | 1.003 ± 0.01
107 | TCGGAGATTT | 0.97302 ± 0.00083
108 | TCGGAGGCGG | 1.007 ± 0.0069
109 | TCGGAGGGAG | 1.02 ± 0.056
110 | TCGGAGTGCG | 1.006 ± 0.0062
111 | TCGGAGTGCT | 1.04 ± 0.042
112 | TCGGAGTGGC | 1.2 ± 0.19
113 | TCGGAGTTAG | 1.04 ± 0.022
114 | TCGGATAGAG | 0.949 ± 0.058
115 | TCGGATCATT | 0.9775 ± 0.0039
116 | TCGGATGAGG | 1 ± 0.042
117 | TCGGATGCGT | 1.03 ± 0.035
118 | TCGGCACATT | 1.46 ± 0.63
119 | TCGGCATCGG | 1 ± 0.021
120 | TCGGCCTGCT | 1.01 ± 0.021
121 | TCGGCGGCTG | 0.984 ± 0.01
122 | TCGGCGGGTC | 0.9973 ± 0.0015
123 | TCGGCTATGG | 1.01 ± 0.011
124 | TCGGCTGGAA | 1.027 ± 0.0025
125 | TCGGCTGGGG | 0.991 ± 0.014
126 | TCGGCTTGTT | 1.02 ± 0.02
127 | TCGGGAAGAG | 0.98832 ± 5e-05
128 | TCGGGAAGGA | 1.01 ± 0.031
129 | TCGGGAGAAT | 1.01 ± 0.015
130 | TCGGGAGGCT | 1 ± 0.028

Row | Sequence | switch fluorescence ratio
131 | TCGGGAGTGG | 0.9905 ± 0.0016
132 | TCGGGATACG | 1.14 ± 0.021
133 | TCGGGCATAG | 1.06 ± 0.046
134 | TCGGGCGATG | 0.983 ± 0.036
135 | TCGGGCGGGG | 1.036 ± 0.0098
136 | TCGGGGCACG | 0.993 ± 0.052
137 | TCGGGGCAGG | 0.988 ± 0.013
138 | TCGGGGCAGT | 2.01 ± 1.4
139 | TCGGGGCTCC | 2.87 ± 2.6
140 | TCGGGGGACT | 0.9827 ± 0.0063
141 | TCGGGGGAGG | 0.983 ± 0.022
142 | TCGGGGGCTT | 0.996 ± 0.015
143 | TCGGGGGGCC | 1.02 ± 0.074
144 | TCGGGGGGGA | 1.06 ± 0.14
145 | TCGGGGGTGA | 1 ± 0.021
146 | TCGGGGGTTC | 1.06 ± 0.027
147 | TCGGGGTAAG | 1.03 ± 0.015
148 | TCGGGGTGAC | 1.01 ± 0.018
149 | TCGGGGTTTT | 1.02 ± 0.036
150 | TCGGGTCAGT | 1 ± 0.034
151 | TCGGGTGTGT | 0.9889 ± 0.009
152 | TCGGGTTCCG | 0.963 ± 0.019
153 | TCGGGTTCGG | 0.992 ± 0.032
